Measurements taken from patent CN115181181A (NANJING RONGJIEKANG BIOTECHNOLOGY CO LTD, dated 2022).
Blank lines part the entries; values can stand above or below the binder they belong to.

Target: T1, 人源重组CD25蛋白 (human IL-2RA) (human, UniProt P01589 22-240)
T1 construct: extracellular domain; also called CD25重组蛋白; 人源重组胞外结构域蛋白
T1 sequence (looked up): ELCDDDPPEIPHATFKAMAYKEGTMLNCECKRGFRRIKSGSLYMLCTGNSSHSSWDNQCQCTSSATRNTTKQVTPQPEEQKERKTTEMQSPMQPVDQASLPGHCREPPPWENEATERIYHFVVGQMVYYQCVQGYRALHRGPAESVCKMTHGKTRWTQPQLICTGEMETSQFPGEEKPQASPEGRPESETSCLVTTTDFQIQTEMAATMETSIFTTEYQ
Assay: screening ELISA: crude VHH extract on coated CD25, anti-HA-HRP detection; positive if OD450 is over 5 times the control

B1: 单域抗体1H1 (原核粗提VHH) (VHH)
VHH: ESGGGSVQAGGSLRLSCAASGYTSRRNCMGWFRQAPGKEREGVAAINTAGGHTYYADSVEGRFTISQDNARNTVYLQMNSLKPEDTGMYYCAAETGSYCYAHVPESADFGYWGQGTQVTVSS
notes: also called VHH4; not shown: tags from the pMECS vector (detected with anti-HA antibody)
binding result: binds

B2: 单域抗体2H3 (原核粗提VHH) (VHH)
VHH: ESGGGSVQAGGSLRLSCAASGHTSSSNRMGWFRQAPGKEPEGVAVISTGGGRTLYADSVKGRFTISQDNAKNTLGLQMNSLKPEDTAMYYCAAAASSIAISRFWTWPPKEFFDYWGQGTQVTVSS
notes: also called VHH5; not shown: tags from the pMECS vector (detected with anti-HA antibody)
binding result: binds

B3: 单域抗体1E1 (原核粗提VHH) (VHH)
VHH: ESGGGSVEAGGSLRLSCARPGYDYDTDYMGWFRQAPGKEREGVATIYTQKGFTWYADSVKGRFTISQDNAKNTVYLQMNSLKPEDTAMYYCAAADYGAATSKLNPSKYNAWGQGTQVTVSS
notes: also called VHH3; not shown: tags from the pMECS vector (detected with anti-HA antibody)
binding result: binds

B4: 单域抗体4D9 (原核粗提VHH) (VHH)
VHH: ESGGGSVQAGGSLRLSCAASGYPYRRNCMGWFRQAPGKEREGVAAIDSAGTTTYADSVKGRFTISKDDAKNTLYLQMNSLKPEDTAMYYCALNAPTWECRAGGAPAFAYSGQGTQVTVSS
notes: also called VHH10; not shown: tags from the pMECS vector (detected with anti-HA antibody)
binding result: binds

B5: 单域抗体4H7 (原核粗提VHH) (VHH)
VHH: ESGGGSVQAGGSLRLSCAASESTYRRTYMAWFRQAPGKERDGVAVIYTGNGVTWYADSVEGRFTISQDNAKNTVYLQMNSLKPEDTAMYYCAADSMRGRNVLHSGFYHYWGQGTQVTVSS
notes: also called VHH11; not shown: tags from the pMECS vector (detected with anti-HA antibody)
binding result: binds

B6: 单域抗体3G3 (原核粗提VHH) (VHH)
VHH: ESGGGSVQAGGSLRLSCVGSRYTSITGCMGWFRQAPGKEREGVAAIDTGGGHTYYADSVKGRFTIAQDNAKNTVYLQVNSLKPEDTGMYYCAAEASPCFPHNPQVADFGYWGQGTQVTVSS
notes: also called VHH8; not shown: tags from the pMECS vector (detected with anti-HA antibody)
binding result: binds

B7: 单域抗体3F5 (原核粗提VHH) (VHH)
VHH: ESGGGSVQAGGSLRLSCAASGYTYSRNCVGWFRQAPGKEREGVAAIDSGGGYSYYADSVKGRFTISQDNAKNTVFLQMNSLKPEDTAVYYCAAEPASCFPHVPTEVDFGYWGRGTQVTVSS
notes: also called VHH7; not shown: tags from the pMECS vector (detected with anti-HA antibody)
binding result: binds

Now from value to binder:

binding result: binds
B8: 单域抗体4A4 (原核粗提VHH) (VHH)
VHH: ESGGGSVQAGETLRLSCTASGFTFDDSDMGWYRQAPGNECELVSIMRSDRSTYYAASVKGRFTISQDNAKNTVYLQMNSLKPEDTAVYHCAAAGAISIAAACPTHWWGQGTQVTVSS
notes: also called VHH9; not shown: tags from the pMECS vector (detected with anti-HA antibody)

binding result: binds
B9: 单域抗体1A5 (原核粗提VHH) (VHH)
VHH: ESGGGSVQAGGSLRLSCAASGYTYSSNCMGWFRQAPGKEREGVAAIDTGGGHTYYADSVVKGRFTISQDNAKNTVYLQMNSLKPEDTAMYYCAADSGYCYAEEPAPDRFGYWGQGTQVTVSS
notes: also called VHH1; not shown: tags from the pMECS vector (detected with anti-HA antibody)

binding result: binds
B10: 单域抗体1B5 (原核粗提VHH) (VHH)
VHH: ESGGGSVQAGGSLRLSCAASGYTYSSNCMGWFRQAPGKEREGVAAIDTGGGYTYYADSVEGRFTISQDKAKNTVYLQMNSLKPEDTAMYYCAADTGRCFPHVPYEVDFGYWGQGTQVTVSS
notes: also called VHH2; not shown: tags from the pMECS vector (detected with anti-HA antibody)

binding result: binds
B11: 单域抗体3E11 (原核粗提VHH) (VHH)
VHH: ESGGGSVQAGGSLRLSCVASGYTYSRRCMGWFRQAPGKEREGVAAIYSGNGVTYYPDSVKGRFTISQDNAKNTVYLQMNSLKPEDTAMYYCAAQGDYCYAHAPEPADFGYWGQGTQVTVSS
notes: also called VHH6; not shown: tags from the pMECS vector (detected with anti-HA antibody)
